We go through 1 substance from patent US12109327B2, “Scaffolds from self-assembling tetrapeptides support 3D spreading, osteogenic differentiation and angiogenesis of mesenchymal stem cells” (KING ABDULLAH UNIVERSITY OF SCIENCE AND TECHNOLOGY, priority 2020, dated 2024).

Series [1] is described as follows: Vial inversion test: gelation time and critical gelation concentration. It counts as physicochemical. As to conditions: aqueous solution, 1× PBS. As to the method: In one embodiment, an instant hydrogel formation can be observed when PBS buffer is added to the peptide solution. In one embodiment, the gelation time is determined using a vial inversion test performed at different peptide concentrations in 1×PBS to meet physiological conditions. FIG. 13 compares the gelation time of IVFK and IVZK at different concentration.
The lyophilized peptide powders were dissolved in Milli-Q® water by vortexing into a clear solution at room temperature. Then, 10× phosphate-buffered saline (PBS) was added to the aqueous peptide solution at a final volume ratio of peptide solution to 10×PBS of 9:1. The vial inversion test was performed with different peptide concentrations to find the critical gelation concentration (CGC). To study the spatial structure of the peptide solution during the assembly process, two-dimensional (2D) NMR was performed using Bruker Avance III 600 MHz. Furthermore, scanning electron microscopy (SEM) was performed to visualize the morphology of the self-assembled nanofibers.

Series [2] relates to BM-MSCs. Put plainly: Alizarin red staining of mineralization. The class given is cell-based, human. The source says: Alizarin red staining (ARS) is used to detect calcium deposition. The BM-MSCs cultured in the different scaffolds in the osteogenic medium are stained by Alizarin red to confirm the mineralization process during osteogenic differentiation (FIGS. 4b and S11b). […] The scale bar in FIGS. 31 and 32 is 100 μm. […] This indicates the presence of calcium deposits.
After 14 days of culture, the media were removed and the cells were washed three times with PBS, fixed with 4% paraformaldehyde, and incubated for 15 min at room temperature.
After 14 days of culture, the media was removed and then, the cells were washed three times with PBS and then fixed with 4% paraformaldehyde and the cells incubated for 15 minutes at room temperature. Then, the cells were washed three times with Milli-Q® water. Then the Milli-Q® water was removed and 1 mL of 40 mM Alizarin Red Staining (pH=4.2) was added to each well. The scaffolds were incubated at room temperature for 20-30 min with gentle shaking. […] For the quantification of Alizarin Red Staining, 100 μL of 10% acetic acid was added to each well in a 48-well plate and incubated at room temperature for 30 minutes with gentle shaking. […] Finally, 50 μL of each tube was transferred to a 96-well plate, and the absorbance at 405 nm was read with a plate reader (PHERAstar® FS, Germany)

A short description of series [3]: Oscillatory rheological test of peptide hydrogel stiffness (storage modulus G′). It counts as physicochemical. To be noted: for Storage modulus: 1 rad/s, 0.1% strain. As to the method:
Therefore, in one embodiment, the mechanical stiffness of each peptide hydrogel is assessed by the storage modulus (G′) at different concentrations.
The oscillatory rheological test was performed to determine the mechanical properties of the peptide hydrogels. The peptide hydrogels were measured on a TA Ares G2 rheometer with an 8 mm parallel-plate geometry and a 1.5 mm gap distance at a temperature of 22° C. All of the hydrogels were made inside a Sigmacote®-coated glass ring with 9 mm inner diameter 19 h prior to measurement. Six replicates with a volume of 150 μL were prepared for each sample. […]

The subject of series [4] is BM-MSCs. The experiment in a line: Osteocalcin immunostaining, confocal microscopy. It counts as cell-based, human. The source says: (§1) In one embodiment, the BM-MSCs differentiate to the osteogenic lineage. The expression of osteocalcin is stained and imaged after 3 weeks of culture in osteogenic medium using confocal microscopy, as shown in FIG. 33. FIG. 33 is confocal images showing the expression of osteocalcin stained in green, and the cell nuclei stained in blue using DAPI. The scale bar in FIG. 33 is 100 μm. […] Additionally, the levels of alkaline phosphatase (ALP), an early osteogenic marker expressed by osteoblast cells, are also measured to confirm the commitment of BM-MSCs toward the osteogenic lineage. […] Furthermore, the ALP activity increased with time during the initial 2 weeks as an indicator of osteogenic differentiation. In FIG. 34, * means p<0.05, indicating statistical significance.
Immunostaining was performed after each time point of culture. Briefly, cells were fixed by 4% paraformaldehyde solution for 30 min and incubated in a cold cytoskeleton buffer (3 mM MgCl2, 300 mM sucrose, and 0.5% Triton X-100 in PBS solution) for 5 min to permeabilize the membranes of the cells. The permeabilized cells were incubated in a blocking buffer solution, 5% fetal bovine serum (FBS), 0.1% Tween-20, and 0.02% […] in PBS for 30 min. […]

For series [5], the system named is BM-MSCs. Put plainly: Alkaline phosphatase (ALP) assay. The class given is cell-based, human.
From the text: as §1
Alkaline phosphatase (ALP) was measured after 1 and 2 weeks of culture using an alkaline phosphatase substrate kit. At the end of each culture time, the scaffolds were washed by PBS and cells were lysed using 1% Triton X-100. Then, 80 μL of the cell lysate mixture was added to 50 μL of the para-nitrophenylphosphate (pNPP) substrate (5 mM) and incubated at room temperature for 2 h. The reaction was inhibited by the addition of a stop solution, and the absorbance was measured at 405 nm using a multimode plate reader (PHERAstar® FS, Germany).

Where [6] appears, read: hydrogel around 20 kPa (4 mg/mL) versus 50 kPa (8 mg/mL).

On to “Ac-Ile-Val-Phe-Lys-NH2 (Ac-IVFK-NH2) [aromatic self-assembling tetrapeptide forming hydrogel scaffold]”, for which the “critical gelation concentration (CGC)” value in series [1] is 2 mg/mL. Moreover, the “calcium content (Alizarin red-S quantification)” value with BM-MSCs [2] (setting [6]) is “significantly higher calcium content than that at 50 kPa”. Moreover, in the series with BM-MSCs [2] (osteogenic medium, compared to the other scaffolds), the “Alizarin red-S (ARS) staining of mineral deposits” value was “most intense ARS staining”. Besides, the stiffness result is “around 20 kPa” in series [3] (peptide concentration 4 mg/mL) and around 50 kPa in series [3] (peptide concentration 8 mg/mL). Further, the Storage modulus in series [3] (peptide hydrogel 2 mg/mL) is 0.54 ± 0.06 kPa; in series [3] (peptide hydrogel 3 mg/mL) it was 7.03 ± 0.19 kPa; in series [3] (peptide hydrogel 4 mg/mL), 23.40 ± 0.88 kPa; in series [3] (peptide hydrogel 6 mg/mL), 35.79 ± 0.95 kPa; in series [3] (peptide hydrogel 8 mg/mL) it was 51.79 ± 4.73 kPa. Moreover, the osteocalcin expression result is “comparable to those cultured in the collagen control group” in the series with BM-MSCs [4] (3 weeks in osteogenic medium) and “more intense” with BM-MSCs [4] (20 kPa scaffold compared to the others). In addition, the ALP activity result in the series on BM-MSCs [5] (after 7 days in osteogenic medium, versus collagen, p<0.05) was “Significantly higher ALP activity”. For the same substance, the ALP release entry in the series with BM-MSCs [5] (setting [6]) is listed as “higher ALP release than that at 50 kPa”.
